Source: US20090088386A1 (KAGOSHIMA UNIVERSITY, published 2009)
No end group written: not given here.

Assays:
[1] = molecular target: T1, pepB7-C15 (pepD1-C5, C7, C20) peptide phage clone; assay: biopanning on coated B7 scFv; no ELISA figure is given for B7
T1 construct: also called pepD1-C7; pepD1-C20; not shown: phage gene III protein of the Ph.D.-C7C library phage (New England Biolabs)
T1 peptide: CYGTKPWMC

[2] = molecular target: T2, pepB6-L1 peptide phage clone (not fully specified (C-terminus)); assay: phage ELISA, scFv coated on plate, phage detected with anti-M13 antibody
T2 construct: not shown: phage gene III protein of the Ph.D.-12 library phage (New England Biolabs)
T2 peptide: GMLDIFAPIRHV

[3] = molecular target: T3, pepB6-L10 peptide phage clone (not fully specified (C-terminus)); assay: as above
T3 construct: not shown: phage gene III protein of the Ph.D.-12 library phage (New England Biolabs)
T3 peptide: TSPILDVLTPPR

[4] = molecular target: T4, pepD1-L20 peptide phage clone; assay: as above
T4 construct: not shown: phage gene III protein of the Ph.D.-12 library phage (New England Biolabs)
T4 peptide: NPLDFYAPSILP

[5] = molecular target: T1, pepB7-C15 (pepD1-C5, C7, C20) peptide …; assay: as above
Description: An ELISA plate was coated with scFv used as a template in the panning or with control scFv in an amount of 50 ng/40 μl/well (0.1 M NaHCO₃, pH 8.6) at 4° C. for 6 hours. Each well was blocked with 0.5% gelatin at 4° C. for 13 hours. Each well was washed with 0.2% PBST three times and then reacted at room temperature for 1 hour by the addition of the isolated peptide phage clone solution (approximately 1.6×10¹¹ virions/40 μl). After reaction with 40 μl of biotinylated anti-M13 monoclonal antibodies (diluted 1000 folds) and a streptavidin-alkaline phosphatase conjugate (diluted 1000 folds), bound phages were detected using substrate p-nitrophenyl phosphate.
The experiment was conducted according to the procedures described in the paragraph (5) ELISA. […] The experiment was conducted according to the procedures described in the paragraph (5) ELISA. […] The experiment was conducted according to the procedures described in the paragraph (5) ELISA.

[6] = molecular target: T5, pepD1-C2, C13 peptide phage clone; assay: as above
T5 construct: also called pepD1-C13; not shown: phage gene III protein of the Ph.D.-C7C library phage (New England Biolabs)
T5 peptide: CYGTEPWMC

[7] = molecular target: T6, pepD1-C18 peptide phage clone; assay: as above
T6 construct: not shown: phage gene III protein of the Ph.D.-C7C library phage (New England Biolabs)
T6 peptide: CFGHEPWMC

[8] = molecular target: T7, pepD1-C3 peptide phage clone; assay: as above
T7 construct: not shown: phage gene III protein of the Ph.D.-C7C library phage (New England Biolabs)
T7 peptide: CQGHLPWMC

[9] = molecular target: T8, pepD1-C11 peptide phage clone; assay: as above
T8 construct: not shown: phage gene III protein of the Ph.D.-C7C library phage (New England Biolabs)
T8 peptide: CFGHKPWMC

[10] = molecular target: T9, pepD1-C8 peptide phage clone; assay: as above
T9 construct: not shown: phage gene III protein of the Ph.D.-C7C library phage (New England Biolabs)
T9 peptide: CFGRLPWMC

[11] = molecular target: T10, pepD1-C10 peptide phage clone; assay: as above
T10 construct: not shown: phage gene III protein of the Ph.D.-C7C library phage (New England Biolabs)
T10 peptide: CFGSLPWMC

[12] = molecular target: T11, pepD1-L5, L9 peptide phage clone; assay: as above
T11 construct: also called pepD1-L9; not shown: phage gene III protein of the Ph.D.-12 library phage (New England Biolabs)
T11 peptide: GSPFLDLLAPAA

[13] = molecular target: T12, pepD1-L6 peptide phage clone; assay: as above
T12 construct: not shown: phage gene III protein of the Ph.D.-12 library phage (New England Biolabs)
T12 peptide: SSIIDILLPPIY

[14] = molecular target: T13, pepD1-L7 peptide phage clone; assay: as above
T13 construct: not shown: phage gene III protein of the Ph.D.-12 library phage (New England Biolabs)
T13 peptide: SILDILSPRLAE

[15] = molecular target: T14, pepD1-L13 peptide phage clone; assay: as above
T14 construct: not shown: phage gene III protein of the Ph.D.-12 library phage (New England Biolabs)
T14 peptide: GNTLLDTLVPLI

amyloid β peptide 1-42 = molecular target: T15, amyloid β peptide 1-42 (UniProt P05067 672-713); assay: precipitation of Aβ oligomer and fibers with streptavidin-magnet beads, Western blot with anti-Aβ antibodies
T15 construct: domain: Aβ1-42; In the precipitation experiment it stood as oligomer and fibers formed 1.5 hours after dissolution at 40 µM; also called Aβ1-42; Aβ oligomer
T15 sequence (P05067 672-713 limits assumed): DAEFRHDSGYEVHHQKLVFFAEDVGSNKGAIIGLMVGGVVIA
Description: Aβ1-42 was dissolved at a concentration of 40 μM in 20 mM phosphate buffer, pH 7.0. […] After reaction, an aliquot thereof was sampled as a sample before immunoprecipitation (“Before precipitation”), and the remaining sample was reacted with M-280 streptavidin-magnet beads (Dynal Biotech, Oslo, Norway) adjusted to 20 μg/μl on ice for 1 hour at a ratio of 1:1 by liquid volume (final concentration: Aβ [10 μM]/synthesized peptide [10 μM]/beads [10 μg/μl]). After reaction, the beads were precipitated using a magnet to obtain “Supernatant”. To the precipitated beads, PBS was added in a liquid volume equal to the collected supernatant to obtain “Pellet”. Each obtained sample was electrophoresed and subjected to Western blot analysis using anti-Aβ antibodies.
Aβ1-42 was dissolved at a concentration of 40 μM in 20 mM phosphate buffer, pH 7.0.

B1: B7 scFv (clone B7 described in WO 2005/105998) (scFv, V domains shown)
VH: QVQLVQSGGGLVQPGGSQRLSCAASGFGFSNYAVSWVRQAPGTGLEWVAGVNGGGQNTFYADSVKGRFTISRDNSKKTVYLQMNSLRVEDTAIYYCAKDGRFRNRRPDGFDTWGQGTLVTVSS
VL: SSELTQDPNVSVALGQTVRITCQGDTLRNNFPTWYQQKPGQAPVLVFYGKDNRPSGIPDRFSGSRSGTTASLVITGAQAQDEADYYCNSRDSGGHHLVFGGGTKLTVLG
notes: Human single-chain antibody
binding result [1]: binds

B2: B6 scFv (clone B6 described in WO 2005/105998) (scFv, V domains shown)
VH: QVQLVQSGGGVVQPGGSLRLSCAASGFTFSRYAMSWVRQAPGKGLEWVSAMSGSGDTTYYADSVKGRFTISRDNSKKTVYLQMNRLRVEDTAIYYCAKDGRFRNRRSDGFDTWGQGTLVTVSS
VL: SSELTQDPAVSVALGQTVRITCQGDSLRSYYASWYQQKPGQAPVLVIYGKDNRPSGIPDRFSGSSSGNAASLTITGAQAEDEADYYCNSRDTSGNHLVFGGGTKVTVLG
notes: Human single-chain antibody
binding result [2]: binds | binding result [3]: binds

B3: D1 scFv (clone D1 described in WO 2005/105998) (scFv, V domains shown)
VH: QVTLKESGGDLVKPGGSLRLSCAASGFTFRKYYMAWIRQAPGKGPEWLSTISNSGDIIDYADSVRGRFSISRDNAQKSLYLQMTSLRPDDSAIYYCAREYFFSFDVWGRGTLVTVSS
VL: SSELTQDPAVSVALGQTIRITCQGDSLRSYYASWYQQKPGQAPVLVIYGKNKRPSGIPDRISGSRSGNTASLTITGAQAEDEADYYCNSRDSSGNHLVFGGGTQLTVLG
notes: Human single-chain antibody
binding result [4]: binds | binding result [5]: binds | binding result [6]: binds | binding result [7]: binds | binding result [8]: binds | binding result [9]: binds | binding result [10]: binds | binding result [11]: binds | binding result [12]: binds | binding result [13]: binds | binding result [14]: binds | binding result [15]: binds

B4: unrelated control peptide (GSGGGSCGYWRSEWGLCG) (peptide)
peptide: GSGGGSCGYWRSEWGLCG
notes: also called unrelated peptide
binding result (amyloid β peptide 1-42): no binding
